# Data from publication PMC7801659, “Shared and divergent phase separation and aggregation properties of brain-expressed ubiquilins” (Scientific Reports, 2021).
# B1: UBQLN4^444–601 (domain or fragment, human)
# chain: WLPVFLQQMQNPESLSILTNPRAMQALLQIQQGLQTLQTEAPGLVPSLGSFGISRTPAPSAGSNAGSTPEAPTSSPATPATSSPTGASSAQQQLMQQMIQLLAGSGNSQVQTPEVRFQQQLEQLNSMGFINREANLQALIATGGDINAAIERLLGSQLS
# notes: one tryptophan added at the N-terminus with the 6xHis tag (His6-W-); also called C-terminal UBQLN4 construct; source: E. coli Rosetta (DE3), purified (Ni-NTA, dialysis); not shown: His6, N-terminal, kept
# B2: UBQLN1^438–589 (domain or fragment, human)
# chain: WLPTFLQQMQNPDTLSAMSNPRAMQALLQIQQGLQTLATEAPGLIPGFTPGLGALGSTGGSSGTNGSNATPSENTSPTAGTTEPGHQQFIQQMLQALAGVNPQLQNPEVRFQQQLEQLSAMGFLNREANLQALIATGGDINAAIERLLGSQPS
# notes: one tryptophan added at the N-terminus with the 6xHis tag (His6-W-); also called C-terminal UBQLN1 construct; source: E. coli Rosetta (DE3), purified (Ni-NTA, dialysis); not shown: His6, N-terminal, kept
# B3: UBQLN2^430–624 (domain or fragment, human)
# chain: WLPAFLQQMQNPDTLSAMSNPRAMQALMQIQQGLQTLATEAPGLIPSFTPGVGVGVLGTAIGPVGPVTPIGPIGPIVPFTPIGPIGPIGPTGPAAPPGSTGSGGPTGPTVSSAAPSETTSPTSESGPNQQFIQQMVQALAGANAPQLPNPEVRFQQQLEQLNAMGFLNREANLQALIATGGDINAAIERLLGSQPS
# notes: one tryptophan added at the N-terminus with the 6xHis tag (His6-W-); ubiquilin-2 (UBQLN2, PLIC-2), residues 430-624, from the fourth STI1 motif to the end of the protein, includes the PXX domain and the UBA domain; Plasmid pET3a-His6-W-UBQLN2^430–624 bought from Genscript; also called His6-W-UBQLN2^430–624; C-terminal UBQLN2 construct; source: E. coli Rosetta (DE3), purified (Ni-NTA, flow-through …)
# B4: UBA^581–624 (domain or fragment, human)
# chain: WRFQQQLEQLNAMGFLNREANLQALIATGGDINAAIERLLGSQPS
# notes: one tryptophan added at the N-terminus with the 6xHis tag (His6-W-); ubiquilin-2 (UBQLN2), UBA domain, residues 581-624; The methods on expression and purification name only the three longer constructs; also called His6-W-UBQLN2^581–624(UBA); isolated UBA domain from UBQLN2; source: recombinant, plasmid for bacterial expression (pET3a)
# Target: the molecule itself
# Experiment: ThioflavinT aggregation assay + transmission electron microscopy; 10 µM protein alone, 10 µM ThT, 0.1 M NaCl, 1 mM sodium azide, 20 mM Na phosphate pH 7.5, 37 °C, shaking at 200 rpm with Teflon beads; samples taken for negative-stain TEM at the end of the ThT assay; self-association into aggregates or fibrils
row,Protein,binding result
1,B1,binds
2,B2,binds
3,B3,binds
4,B4,binds
